What was measured:
mouse IL-17 = target: T1, mouse IL-17 (mouse, UniProt Q62386 26-158, limits assumed); assay: assay not stated (Table 5, 'Source And Binding Information')
T1 construct: also called mouse IL-17A; rodent IL-17 (mouse)
T1 sequence (looked up): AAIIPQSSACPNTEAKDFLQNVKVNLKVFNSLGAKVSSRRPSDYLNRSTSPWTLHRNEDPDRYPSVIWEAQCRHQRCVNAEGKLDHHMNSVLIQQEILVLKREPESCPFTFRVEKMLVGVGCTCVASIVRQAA

mouse TNF = target: T2, mouse TNF (mouse, UniProt P06804 80-235); assay: as above
T2 construct: also called murine TNF; rodent TNF (mouse)
T2 sequence (looked up): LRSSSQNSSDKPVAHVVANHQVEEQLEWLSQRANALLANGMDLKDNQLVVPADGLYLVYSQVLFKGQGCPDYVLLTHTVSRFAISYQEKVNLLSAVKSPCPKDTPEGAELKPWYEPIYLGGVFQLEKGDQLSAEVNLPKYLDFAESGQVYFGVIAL

B1: 8C11/10F7M11 anti-TNF/IL-17 DVD-Ig protein (bispecific antibody, human IgG1, kappa, L234A L235A)
heavy: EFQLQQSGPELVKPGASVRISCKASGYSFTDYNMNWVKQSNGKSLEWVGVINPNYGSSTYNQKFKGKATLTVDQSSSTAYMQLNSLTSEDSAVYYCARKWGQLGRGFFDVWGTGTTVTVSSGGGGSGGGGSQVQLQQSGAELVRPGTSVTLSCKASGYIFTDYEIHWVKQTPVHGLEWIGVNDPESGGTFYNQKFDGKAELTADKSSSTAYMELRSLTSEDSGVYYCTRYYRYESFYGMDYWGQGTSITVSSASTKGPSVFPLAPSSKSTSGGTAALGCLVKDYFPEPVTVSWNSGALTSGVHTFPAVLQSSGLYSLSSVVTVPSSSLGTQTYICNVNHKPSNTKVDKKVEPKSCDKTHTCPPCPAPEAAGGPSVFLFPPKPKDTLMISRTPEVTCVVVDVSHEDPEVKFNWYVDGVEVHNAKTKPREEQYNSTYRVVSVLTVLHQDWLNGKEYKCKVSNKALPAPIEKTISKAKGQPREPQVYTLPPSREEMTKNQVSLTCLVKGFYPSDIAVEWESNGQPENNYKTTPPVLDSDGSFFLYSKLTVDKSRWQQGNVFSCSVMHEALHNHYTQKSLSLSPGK
light: QIVLSQSPAILSASPGEKVTMTCRASSSVSYMHWFQQKPGSSPKPWIYATSNLASGVPARFSGSGSGTSYSLTISRVEAEDAATYYCQQWSSSPLTFGAGTKLELKRGGSGGGGSGQIVLTQSPAIMSASPGEKVTMTCSASSSISYIYWFQQKPGTSPKRWIYATFELASGVPARFSGSGSGTSYSLTISSMEAEDAATYYCHQRSSYPWTFGGGSKLEIKRTVAAPSVFIFPPSDEQLKSGTASVVCLLNNFYPREAKVQWKVDNALQSGNSQESVTEQDSKDSTYSLSSTLTLSKADYEKHKVYACEVTHQGLSSPVTKSFNRGEC
notes: also called 8C11/10F7 DVD-Ig protein; anti-mouse TNF/IL-17 DVD-Ig
Mouse IL-17
  IC50: 0.13 nM
Mouse TNF
  IC50: 2 nM

B2: anti-murine TNF antibody 8C11 (antibody, mouse IgG2c, V domains shown)
VH: EFQLQQSGPELVKPGASVRISCKASGYSFTDYNMNWVKQSNGKSLEWVGVINPNYGSSTYNQKFKGKATLTVDQSSSTAYMQLNSLTSEDSAVYYCARKWGQLGRGFFDVWGTGTTVTVSS
VL: QIVLSQSPAILSASPGEKVTMTCRASSSVSYMHWFQQKPGSSPKPWIYATSNLASGVPARFSGSGSGTSYSLTISRVEAEDAATYYCQQWSSSPLTFGAGTKLELKR
notes: also called 8C11 anti-TNF Ab; Anti-TNF
Mouse TNF
  IC50: 2 nM

Reference: patent publication US20160002326A1 (AbbVie / Abbott, published 2016)
